{"source": "patent US20130189255A1", "about": "“FUSIONS AND CONJUGATES OF INSULINOTROPIC AGENTS” (GLAXO GROUP LIMITED, priority 2008, published 2013)", "assay": "Thermal denaturation by differential scanning calorimetry (DSC)", "format": "physicochemical", "conditions": "1 mg/ml, 20 mM citrate pH6.2, 100 mM NaCl, 180° C./hour, non-2-state model", "method": "Protein was dialysed overnight into 20 mM citrate pH6.2, 100 mM NaCl, filtered and then prepared at concentration of 1 mg/ml as determined by absorbance at 280 nm. Filtered dialysis buffer was used as a reference for all samples. DSC was performed at a heating rate of 180° C./hour. Before each sample a solution of 1% decon, and then buffer were injected to clean the cells and to provide instrumental baseline. Obtained traces were analysed using Origin 7 Microcal software. The DSC trace obtained from the reference buffer was subtracted from the sample trace. Precise molar concentration of the sample was used for calculations (performed automatically by Origin). Baseline setting for both upper and lower baselines linear regions before/after transition were selected and connected using cubic connect function. The resulting graph is fitted to non-2-state model, generating apparent Tm, and ΔH/ΔHv values."}
{"substance": "lysozyme", "values": [{"measurement": "appTm", "result": 76.2, "unit": "°C"}]}
